Experimental data taken from patent publication US20150086555A1.

Columns and labels:
Details in all cases: remark: other sources report otherwise
[1] = target: recombinant soluble homotrimeric HA of A/Anhui/1/05 (H5N1) (Influenza A virus A/Anhui/1/2005(H5N1)); experiment: HA microarray, BCC supernatant
[2] = target: recombinant soluble homotrimeric HA of A/California/4/09 (H1N1) (Influenza A virus A/California/04/2009(H1N1)); experiment: HA microarray, BCC supernatant
[3] = target: recombinant soluble homotrimeric HA of A/Hong Kong/2108/03 (H9N2) (Influenza A virus A/HK/2108/2003(H9N2)); experiment: HA microarray, BCC supernatant
[4] = target: recombinant soluble homotrimeric HA of A/Indonesia/5/05 (H5N1) (Influenza A virus A/Indonesia/5/2005(H5N1)); experiment: HA microarray, BCC supernatant
[5] = target: recombinant soluble homotrimeric HA of A/Japan/305/57 (H2N2) (Influenza A virus A/Japan/305/1957(H2N2)); experiment: HA microarray, BCC supernatant
[6] = target: recombinant soluble homotrimeric HA of A/Netherlands/219/03 (H7N7) (Influenza A virus A/Netherlands/219/03(H7N7)); experiment: HA microarray, BCC supernatant
[7] = target: recombinant soluble homotrimeric HA of A/Solomon Islands/3/06 (H1N1) (Influenza A virus A/Solomon Islands/3/2006(H1N1)); experiment: HA microarray, BCC supernatant
[8] = target: recombinant soluble homotrimeric HA of A/Vietnam/1203/04 (H5N1) (Influenza A virus A/VietNam/1203/2004(H5N1)); experiment: HA microarray, BCC supernatant
[9] = target: recombinant soluble homotrimeric HA of A/Wisconsin/67/05 (H3N2) (Influenza A virus A/Wisconsin/67/2005(H3N2)); experiment: HA microarray, BCC supernatant
[10] = target: recombinant soluble homotrimeric HA of A/chicken/Vietnam/NCVD-016/08 (H5N1) (Influenza A virus A/chicken/Vietnam/NCVD-016/2008(H5N1)); experiment: HA microarray, BCC supernatant
[11] = target: recombinant soluble homotrimeric HA of A/duck/Yangzhou/02/05 (H8N4) (Influenza A virus A/duck/Yangzhou/02/2005(H8N4)); experiment: HA microarray, BCC supernatant
[12] = target: recombinant soluble homotrimeric HA of A/northern shoveler/California/HKWF115/07 (H6) (Influenza A virus A/northern shoveler/California/HKWF115/2007(H6N1)); experiment: HA microarray, BCC supernatant
[13] = target: recombinant soluble homotrimeric HA of A/swine/Ontario/01911-2/99 (H4N6) (Influenza A virus A/Swine/Ontario/01911-2/99 (H4N6)); experiment: HA microarray, BCC supernatant
[14] = target: recombinant homotrimeric HA A/Anhui/1/05 H5N1 (Influenza A virus A/Anhui/1/2005(H5N1)); experiment: protein microarray, purified IgG, trimeric HA
[15] = target: recombinant homotrimeric HA A/California/4/09 H1N1 (Influenza A virus A/California/04/2009(H1N1)); experiment: protein microarray, purified IgG, trimeric HA
[16] = target: recombinant homotrimeric HA A/Egypt/3300-NAMRU3/08 H5N1 (Influenza A virus A/Egypt/3300-NAMRU3/2008(H5N1)); experiment: protein microarray, purified IgG, trimeric HA
[17] = target: recombinant homotrimeric HA A/Hong Kong/1073/99 H9N2 (Influenza A virus A/Hong Kong/1073/99 (H9N2)); experiment: protein microarray, purified IgG, trimeric HA
[18] = target: recombinant homotrimeric HA A/Hong Kong/156/97 H5N1 (Influenza A virus A/Hong Kong/156/97 (H5N1)); experiment: protein microarray, purified IgG, trimeric HA
[19] = target: recombinant homotrimeric HA A/Indonesia/5/05 H5N1 (Influenza A virus A/Indonesia/5/2005(H5N1)); experiment: protein microarray, purified IgG, trimeric HA
[20] = target: recombinant homotrimeric HA A/Japan/305/57 H2N2 (Influenza A virus A/Japan/305/1957(H2N2)); experiment: protein microarray, purified IgG, trimeric HA
[21] = target: recombinant homotrimeric HA A/Netherlands/219/03 H7N7 (Influenza A virus A/Netherlands/219/03(H7N7)); experiment: protein microarray, purified IgG, trimeric HA
[22] = target: recombinant homotrimeric HA A/Solomon Islands/3/06 H1N1 (Influenza A virus A/Solomon Islands/3/2006(H1N1)); experiment: protein microarray, purified IgG, trimeric HA
[23] = target: recombinant homotrimeric HA A/South Carolina/1/18 H1N1 (Influenza A virus A/South Carolina/1/18 (H1N1)); experiment: protein microarray, purified IgG, trimeric HA
[24] = target: recombinant homotrimeric HA A/Vietnam/1203/04 H5N1 (Influenza A virus A/VietNam/1203/2004(H5N1)); experiment: protein microarray, purified IgG, trimeric HA
[25] = target: recombinant homotrimeric HA A/Wisconsin/67/05 H3N2 (Influenza A virus A/Wisconsin/67/2005(H3N2)); experiment: protein microarray, purified IgG, trimeric HA
[26] = target: recombinant homotrimeric HA A/chicken/Vietnam/NCVD-016/08 H5N1 (Influenza A virus A/chicken/Vietnam/NCVD-016/2008(H5N1)); experiment: protein microarray, purified IgG, trimeric HA
[27] = target: recombinant homotrimeric HA A/northern shoveler/California/HKWF115/07 H6N4 (Influenza A virus A/northern shoveler/California/HKWF115/2007(H6N1)); experiment: protein microarray, purified IgG, trimeric HA
[28] = target: recombinant homotrimeric HA A/Hong Kong/2108/03 H9N2 (Influenza A virus A/HK/2108/2003(H9N2)); experiment: protein microarray, purified IgG, trimeric HA

Binder | Trimeric HA Binding: RLU [1] | Trimeric HA Binding: RLU [2] | Trimeric HA Binding: RLU [3] | Trimeric HA Binding: RLU [5] | Trimeric HA Binding: RLU [6] | Trimeric HA Binding: RLU [7] | Trimeric HA Binding: RLU [8] | Trimeric HA Binding: RLU [9] | Trimeric HA Binding: RLU [12] | Trimeric HA Binding: RLU [13] | Trimeric HA Binding: RLU [16] | Trimeric HA Binding: RLU [17] | Trimeric HA Binding: RLU [18] | Trimeric HA Binding: RLU [20] | Trimeric HA Binding: RLU [21] | Trimeric HA Binding: RLU [22] | Trimeric HA Binding: RLU [23] | Trimeric HA Binding: RLU [24] | Trimeric HA Binding: RLU [25] | Trimeric HA Binding: RLU [27] | further results
TCN-535 (5246_P19) (antibody, V domains shown) VH: QVQLVQSGSEVKKPGTSVKVSCTASGSVFTNYGISWVRQAPGQGLEWMGGIIPLFGAAKYAQKFQGRVTITADESTKTVYMELSRLTSKDTAIYFCAKAPRVYEYYFDQWGQGTPVTVSS VL: EIVLTQSPGTLSLSPGERATLSCRASQSVSSSQLAWYQQKPGQAPRLIIYGASTRATGIPDRFSGSGSGTDFTLTIGRLEPEDFAVFFCQQYSTSPPTFGQGTKVDFK | 6880 RLU | 48600 RLU | 861 RLU | 26100 RLU | 4760 RLU | 39400 RLU | 4740 RLU | 34300 RLU | 48200 RLU | 5950 RLU | 18100 RLU | 3470 RLU | 13200 RLU | 13000 RLU | 339 RLU | 11300 RLU | 5660 RLU | 20800 RLU | 148 RLU | 5880 RLU | Trimeric HA Binding: RLU [4]: 45600 RLU; Trimeric HA Binding: RLU [10]: 50000 RLU; Trimeric HA Binding: RLU [11]: 36600 RLU; Trimeric HA Binding: RLU [14]: 6700 RLU; Trimeric HA Binding: RLU [15]: 17200 RLU; Trimeric HA Binding: RLU [19]: 17900 RLU; Trimeric HA Binding: RLU [26]: 2630 RLU
TCN-550 (5096_F06) (antibody, V domains shown) VH: QVQLQESGPGLVKPSETLSLTCTVSGASINSHYWSWIRQPPGKGLEWIGYVYYSGSTTYNPSLKSRVTLSVDTSKNQFSLNLSSVTAADTAFYYCARHPYDVLTGSGDWFDPWGQGTLVTVSS VL: SYVLTQAPSVSVAPGQTARITCGGNAIGSKKVHWYQHKAGQAPVLVVYDDTDRPSGIPERFSGSNSWSTATLTINRVEAGDEADYYCQVWDFTIDHVVFGGGTKLTVL | 1210 RLU | 454 RLU | 2280 RLU | 201 RLU | 939 RLU | 204 RLU | 277 RLU | 26300 RLU | 964 RLU | 195 RLU | 3530 RLU | 413 RLU | 304 RLU | 499 RLU | 223 RLU | 752 RLU | 104 RLU | 829 RLU | 21300 RLU | 106 RLU | Trimeric HA Binding: RLU [4]: 9100 RLU; Trimeric HA Binding: RLU [10]: 361 RLU; Trimeric HA Binding: RLU [11]: 407 RLU; Trimeric HA Binding: RLU [14]: 4780 RLU; Trimeric HA Binding: RLU [15]: 238 RLU; Trimeric HA Binding: RLU [28]: 150 RLU; Trimeric HA Binding: RLU [26]: 295 RLU
TCN-530 (5248_H10a) (antibody, V domains shown) VH: QVQLVQSGAEVRKPGSSVKVSCKASGGPFMSYAIGWVRQAPGQGLEWMGGINPVFGRPHYAQKFQGRVTIATDDSTKTSYMELSSLTSEDTGMYYCASRYSRSSPGTFESWGQGTLVTVSS VL: EIVMTQFPATLSVSPGERVTLSCRASQSVSNNLAWYQQKPGQPPRLLIYDASTRATGVPAKFSGTGSGTEFTLSISSLQSEDFAVYYCQQYHNWPPSYSFGLGTKLEIK | 11900 RLU | 46600 RLU | 486 RLU | 47000 RLU | 2900 RLU | 32800 RLU | 7150 RLU | 36800 RLU | 45300 RLU | 2740 RLU | 12300 RLU | 874 RLU | 14000 RLU | 9040 RLU | 402 RLU | 8570 RLU | 7360 RLU | 19100 RLU | 132 RLU | 9010 RLU | Trimeric HA Binding: RLU [4]: 39800 RLU; Trimeric HA Binding: RLU [10]: 48300 RLU; Trimeric HA Binding: RLU [11]: 41700 RLU; Trimeric HA Binding: RLU [15]: 14200 RLU; Trimeric HA Binding: RLU [28]: 169 RLU; Trimeric HA Binding: RLU [19]: 10900 RLU; Trimeric HA Binding: RLU [26]: 2050 RLU
TCN-543 (5081_G23) (antibody, V domains shown) VH: QVHLVQSGAEVRKPGDSVKVSCKTSGYTFSTYPVAWVRQVPGQGLEWMGWISTYNGNTNFAQNFQGRVTLTTDTTTNTAYMEVRSLKFDDTAVYYCARVEGSYRDFWNNQNRFDPWGQGTLVTVSS VL: SYVLTQPPSVSVAPGQTARISCGGSNIGGKSVHWYQQKPGQAPVLVVYDDSGRPSGIPERFSGSNSGDTATLTISRVEAGDEADYFCQVWDNFGGVFGTGTKVTVL | – | – | 131 RLU | 197 RLU | 661 RLU | 511 RLU | 488 RLU | 1360 RLU | 2130 RLU | 428 RLU | 580 RLU | 9160 RLU | 112 RLU | 14000 RLU | 162 RLU | 18300 RLU | 259 RLU | 640 RLU | 302 RLU | 101 RLU | Trimeric HA Binding: RLU [14]: 601 RLU; Trimeric HA Binding: RLU [28]: 135 RLU; Trimeric HA Binding: RLU [19]: 91 RLU
